Results on three molecules are retold here after patent US20150152192A1 (SAMSUNG ELECTRONICS, published 2015).

T1: mouse Ang2 (Accession # NP-031452) (R&D Systems) (mouse, UniProt O35608 19-496, limits assumed)
T1 construct: Bought protein; also called mAng2
T1 sequence (looked up): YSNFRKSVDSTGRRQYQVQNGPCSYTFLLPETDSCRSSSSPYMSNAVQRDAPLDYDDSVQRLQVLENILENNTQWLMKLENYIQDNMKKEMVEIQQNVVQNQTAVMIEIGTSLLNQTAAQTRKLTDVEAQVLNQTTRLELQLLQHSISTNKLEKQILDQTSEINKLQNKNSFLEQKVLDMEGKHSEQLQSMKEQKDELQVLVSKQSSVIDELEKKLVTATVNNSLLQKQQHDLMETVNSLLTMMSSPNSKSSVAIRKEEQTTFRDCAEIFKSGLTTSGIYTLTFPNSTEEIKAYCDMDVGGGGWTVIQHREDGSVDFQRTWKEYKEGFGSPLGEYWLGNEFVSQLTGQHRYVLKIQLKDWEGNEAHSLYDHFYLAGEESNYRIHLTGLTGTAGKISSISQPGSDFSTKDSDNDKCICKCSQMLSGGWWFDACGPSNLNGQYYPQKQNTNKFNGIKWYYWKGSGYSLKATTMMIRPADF

T2: recombinant hAng2 (C-His, R&D Systems) (human, UniProt O15123 19-496)
T2 construct: Bought protein captured on an anti-His chip; not shown: C-terminal His tag
T2 sequence: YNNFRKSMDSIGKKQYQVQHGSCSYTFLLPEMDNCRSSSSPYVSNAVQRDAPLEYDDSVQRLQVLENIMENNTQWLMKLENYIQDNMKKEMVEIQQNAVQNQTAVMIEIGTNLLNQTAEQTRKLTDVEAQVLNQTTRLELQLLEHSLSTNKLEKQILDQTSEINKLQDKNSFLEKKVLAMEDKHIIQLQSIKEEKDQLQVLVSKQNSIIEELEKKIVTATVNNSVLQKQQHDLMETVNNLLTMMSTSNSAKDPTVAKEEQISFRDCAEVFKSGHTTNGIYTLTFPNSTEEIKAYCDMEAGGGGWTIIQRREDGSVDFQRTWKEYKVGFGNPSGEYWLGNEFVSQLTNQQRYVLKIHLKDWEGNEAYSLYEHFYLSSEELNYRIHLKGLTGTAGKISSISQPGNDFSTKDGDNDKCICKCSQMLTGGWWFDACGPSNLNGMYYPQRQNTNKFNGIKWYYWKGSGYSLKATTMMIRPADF

T3: human Ang2 polypeptide (R&D systems; Accession #O15123; SEQ ID NO: 172) (human, UniProt O15123 19-496)
T3 construct: Bought protein; also called hAng2; human Ang2 protein
T3 sequence: T2 sequence

B1: FLAG-Tagged hAng2 (ligand)
chain: DYKDDDDKYNNFRKSMDSIGKKQYQVQHGSCSYTFLLPEMDNCRSSSSPYVSNAVQRDAPLEYDDSVQRLQVLENIMENNTQWLMKLENYIQDNMKKEMVEIQQNAVQNQTAVMIEIGTNLLNQTAEQTRKLTDVEAQVLNQTTRLELQLLEHSLSTNKLEKQILDQTSEINKLQDKNSFLEKKVLAMEDKHIIQLQSIKEEKDQLQVLVSKQNSIIEELEKKIVTATVNNSVLQKQQHDLMETVNNLLTMMSTSNSAKDPTVAKEEQISFRDCAEVFKSGHTTNGIYTLTFPNSTEEIKAYCDMEAGGGGWTIIQRREDGSVDFQRTWKEYKVGFGNPSGEYWLGNEFVSQLTNQQRYVLKIHLKDWEGNEAYSLYEHFYLSSEELNYRIHLKGLTGTAGKISSISQPGNDFSTKDGDNDKCICKCSQMLTGGWWFDACGPSNLNGMYYPQRQNTNKFNGIKWYYWKGSGYSLKATTMMIRPADF
notes: also called FLAG-Ang2; non-mutated Ang2
B2: SAIT-ANG-2-AB-4-C11 (IgG form) (antibody, V domains shown)
VH: EVQLLESGGGLVQPGGSLRLSCAASGFTFSDYAMSWVRQAPGKGLEWVSSIYPDDGNTYYADSVKGRFTISRDNSKNTLYLQMNSLRAEDTAVYYCARHTSHHTSIDGYYYYGMDGWGQGTLVTVSS
VL: QSVLTQPPSASGTPGQRVTISCTGSSSNIGNNDVSWYQQLPGTAPKLLIYSDSKRPSGVPDRFSGSKSGTSASLAISGLRSEDEADYYCGSWDYSLSGYVFGGGTKLTVLG
notes: Intact human antibody with human IgG1 constant region
B3: anti-c-Met/anti-Ang2 bispecific antibody (anti-Ang2 4-H10 scFv fused to the C-terminus of anti-c-Met antibody L3-1Y-IgG2) (bispecific antibody)
heavy: EVQLVESGGGLVQPGGSLRLSCAASGFTFTDYYMSWVRQAPGKGLEWLGFIRNKANGYTTEYSASVKGRFTISRDNSKNTLYLQMNSLRAEDTAVYYCARDNWFAYWGQGTLVTVSSASTKGPSVFPLAPCSRSTSESTAALGCLVKDYFPEPVTVSWNSGALTSGVHTFPAVLQSSGLYSLSSVVTVPSSNFGTQTYTCNVDHKPSNTKVDKTVERKCCVECPPCPAPPVAGPSVFLFPPKPKDTLMISRTPEVTCVVVDVSHEDPEVQFNWYVDGVEVHNAKTKPREEQFNSTFRVVSVLTVVHQDWLNGKEYKCKVSNKGLPAPIEKTISKTKGQPREPQVYTLPPSREEMTKNQVSLTCLVKGFYPSDIAVEWESNGQPENNYKTTPPMLDSDGSFFLYSKLTVDKSRWQQGNVFSCSVMHEALHNHYTQKSLSLSPGGGGGSGGGGSEVQLLESGGGLVQPGGSLRLSCAASGFTFSSYDMSWVRLAPGKGLEWVSLISPDSSSIYYADSVKGRFTISRDNSKNTLYLQMNSLRAEDTAVYYCAKDLISFWRGGFDYWGQGTLVTVSSGGGGSGGGGSGSGGSQSVLTQPPSASGTPGQRVTISCSGSSSNIGSNYVNWYQQLPGTAPKLLIYSDSHRPSGVPDRFSGSKSGTSASLAISGLRSEDEADYYCGAWDDSLSGYVFGGGTKLTVLGQAGQHHHHHHGAYPYDVPDYAS
light: DIQMTQSPSSLSASVGDRVTITCKSSQSLLASGNQNNYLAWYQQKPGKAPKMLIIWASTRVSGVPSRFSGSGSGTDFTLTISSLQPEDFATYYCQQSYSRPYTFGQGTKVEIKRTVAAPSVFIFPPSDEQLKSGTASVVCLLNNFYPREAKVQWKVDNALQSGNSQESVTEQDSKDSTYSLSSTLTLSKADYEKHKVYACEVTHQGLSSPVTKSFNRGEC
notes: also called BS ab; BS Ab

Assay [1] addresses T4, integrin alpha5beta1 (α5β1; R&D systems) (human, UniProt P08648 42-995; P05556 21-728, limits assumed).
T4 construct: Bought heterodimer
As to the kind of experiment: ELISA: integrin alpha5beta1 coated at 5 ug/ml, FLAG-Ang2 at 10 ug/ml, detection with anti-FLAG-HRP, A450. How it is done:
After that, an anti-FLAG antibody (Sigma) conjugated with horseradish peroxidase (HRP) was added to react, and the plate was washed again five times with PBS-t. Bindings between Ang2 and the above the integrin were identified indirectly by measuring the amounts of the anti-FLAG antibody remaining in the ELISA plate via color development using TMB (3,3,5,5-tetramethylbenzidine) as a substrate of HRP. As positive controls, control antibody 1 (Regeneron Ang2 antibody) and control antibody 2 (Astra Zeneca Ang2 antibody) were used. Also, to show the background, a group coated with BSA instead of integrin was used.
Background: An ELISA detects its analyte on a solid surface through an enzyme-linked reagent.

Assay [2] deals with T1, mouse Ang2 (Accession # NP-031452) (R&D …). As to the kind of experiment: ELISA, antigen coated, IgG, anti-hFc-HRP; 50% binding concentration (Kd). How it is done:
To measure binding of the antibodies prepared above with each antigen, ELISA was performed. A 96-well MaxiSorp™ flat-bottom plate (Nunc) was coated with 5˜20 μg/ml of human Ang2 and mouse Ang2 (Accession # NP_{—}031452) (both, R&D Systems). After that, the plate was washed five times with 0.05% (v/v) Tween-20-containing PBS and then blocked with 1% (v/v) BSA-containing PBS at a room temperature for 2 hours. The anti-Ang2 antibodies in their IgG forms prepared above (0.001, 0.01, 0.1, 1, 10, 100, and 1000 nM) were added to each well of the plate which was then allowed to react at a room temperature for 2 hours.
(§1) Thereafter, the plate was washed five times with 0.05% Tween-20-containing PBS and then, an HRP-conjugated anti-human FC (Anti-hFc-HRP conjugated) antibody (SIGMA) diluted in 1% (v/v) BSA-containing PBS at 1:5,000 ratio (v/v) was added in the amount of 50 μl to each well to react at a room temperature for 1 hour, followed by washing five times with 0.1% (v/v) Tween-20-containing PBS. Finally, 100 μl of TMB substrate (cell signal) was added to each well of the plate to induce color development at a room temperature for 3 min and then, the reaction was ceased by the addition of 50 μl of 5N H₂SO₄ solution and OD450 values were measured on a plate reader (Molecular Devices).

Assay [3] concerns the target T2, recombinant hAng2 (C-His, R&D Systems). The assay can be described thus: SPR, BIAcore T100, hAng2-His captured on anti-His CM5 chip, antibody flowed. How it is done: To measure accurate affinities toward an anti-Ang2 antigen, antigen affinities were measured by a SPR method using a BIAcore T100 (GE Healthcare). The SPR method uses refractive index change of light which passes a sensor chip according to the state of materials coated onto the sensor chip, and if an antigen or an antibody is flowed onto a chip coated with the antigen or antibody, it causes changes in refractive index due to their binding and Kd values are thus calculated from the measured values.
First, anti-His antibody was immobilized on a CM5 sensor chip (GE healthcare) up to 8,000 RU levels using a pH 5.0 acetate solution and an amine coupling kit (GE Healthcare). 6 μg/ml of a recombinant hAng2 (C-His, R&D Systems) protein was flowed onto the chip to be captured at 100 to 200 RU levels.
On the technique in general: In SPR one partner is held on a chip, and binding of the other changes the refractive index at the surface.

Assay [4] has as its target B1. As to the kind of experiment: competitive ELISA: hTie2-Fc coated, 400 ng/ml FLAG-hAng2 plus IgG, anti-FLAG-HRP. How it is done: To verify molecular interaction of the bound assemblies, a competitive ELISA was performed. A 96-well MaxiSorp™ flat-bottom plate (Nunc) was coated with […] of hTie2-Fc (R&D Systems), which is a protein with the Fc of human IgG1 bound thereto. After that, the plate was washed five times with 0.05% (v/v) Tween-20-containing PBS (Phosphate Buffer Saline) and then blocked with 1% (v/v) BSA (Bovine serum albumin; Sigma)-containing PBS at a room temperature for 2 hours.
as §1, with “an HRP-conjugated anti-FLAG antibody (SIGMA)” for “an HRP-conjugated anti-human FC (Anti-hFc-HRP conjugated) antibody (SIGMA)”, “amount of 100 μl to” for “amount of 50 μl to”, “for 3 min. Then, the reaction” for “for 3 min and then, the reaction”

For assay [5], the target named is T5, human c-Met/Fc fusion protein (R&D Systems) (human, UniProt P08581 25-932).
T5 construct: also called c-Met-Fc (#358-MT/CF, R&D Systems); human c-Met/Fc protein; not shown: Fc part
The assay can be described thus: SPR, Biacore T100, bispecific antibody captured by human Fab binder on CM5 chip, c-Met-Fc flowed. How it is done: For this, a human Fab binder (GE Healthcare) was fixed on the surface of CM5 chip (#BR-1005-30, GE) according to manufacturer's manual. […] Hereto, 10 mM Glycine-HCl (pH 1.5) solution was added, to regenerate the surface. To measure the affinity, the above obtained data were fitted using BIAevaluation software (GE Healthcare, Biacore T100 evaluation software).

Assay [6] has as its target T3, human Ang2 polypeptide (R&D systems; …). The assay can be described thus: ELISA, human Ang2 coated, anti-human Fc-HRP; 50% binding concentration.

T5 sequence (P08581 25-932 limits assumed): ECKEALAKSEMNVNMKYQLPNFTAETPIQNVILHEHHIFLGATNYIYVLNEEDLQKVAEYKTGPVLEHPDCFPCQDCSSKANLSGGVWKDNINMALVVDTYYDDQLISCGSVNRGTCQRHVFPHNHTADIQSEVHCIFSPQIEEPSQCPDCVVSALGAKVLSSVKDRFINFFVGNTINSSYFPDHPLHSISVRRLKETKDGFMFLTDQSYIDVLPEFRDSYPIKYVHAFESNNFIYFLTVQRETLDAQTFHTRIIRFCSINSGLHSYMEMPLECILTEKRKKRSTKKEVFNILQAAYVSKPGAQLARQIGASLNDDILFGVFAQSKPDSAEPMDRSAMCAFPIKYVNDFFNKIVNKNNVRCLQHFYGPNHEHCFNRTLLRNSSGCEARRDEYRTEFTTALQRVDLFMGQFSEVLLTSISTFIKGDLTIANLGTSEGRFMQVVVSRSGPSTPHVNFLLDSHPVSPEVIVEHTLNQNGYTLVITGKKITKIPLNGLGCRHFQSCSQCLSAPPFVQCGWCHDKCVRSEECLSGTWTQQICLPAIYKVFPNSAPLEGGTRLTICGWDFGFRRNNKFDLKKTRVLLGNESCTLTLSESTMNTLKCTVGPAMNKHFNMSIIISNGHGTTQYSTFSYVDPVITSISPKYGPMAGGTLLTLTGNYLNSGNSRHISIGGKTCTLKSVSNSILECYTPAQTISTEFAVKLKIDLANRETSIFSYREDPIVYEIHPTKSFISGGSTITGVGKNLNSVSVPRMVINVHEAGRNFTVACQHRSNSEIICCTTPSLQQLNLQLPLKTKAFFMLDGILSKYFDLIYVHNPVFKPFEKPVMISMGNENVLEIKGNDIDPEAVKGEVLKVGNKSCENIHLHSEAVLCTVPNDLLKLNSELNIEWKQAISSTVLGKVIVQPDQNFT
T4 sequence (P08648 42-995 limits assumed, chain 1 of 2): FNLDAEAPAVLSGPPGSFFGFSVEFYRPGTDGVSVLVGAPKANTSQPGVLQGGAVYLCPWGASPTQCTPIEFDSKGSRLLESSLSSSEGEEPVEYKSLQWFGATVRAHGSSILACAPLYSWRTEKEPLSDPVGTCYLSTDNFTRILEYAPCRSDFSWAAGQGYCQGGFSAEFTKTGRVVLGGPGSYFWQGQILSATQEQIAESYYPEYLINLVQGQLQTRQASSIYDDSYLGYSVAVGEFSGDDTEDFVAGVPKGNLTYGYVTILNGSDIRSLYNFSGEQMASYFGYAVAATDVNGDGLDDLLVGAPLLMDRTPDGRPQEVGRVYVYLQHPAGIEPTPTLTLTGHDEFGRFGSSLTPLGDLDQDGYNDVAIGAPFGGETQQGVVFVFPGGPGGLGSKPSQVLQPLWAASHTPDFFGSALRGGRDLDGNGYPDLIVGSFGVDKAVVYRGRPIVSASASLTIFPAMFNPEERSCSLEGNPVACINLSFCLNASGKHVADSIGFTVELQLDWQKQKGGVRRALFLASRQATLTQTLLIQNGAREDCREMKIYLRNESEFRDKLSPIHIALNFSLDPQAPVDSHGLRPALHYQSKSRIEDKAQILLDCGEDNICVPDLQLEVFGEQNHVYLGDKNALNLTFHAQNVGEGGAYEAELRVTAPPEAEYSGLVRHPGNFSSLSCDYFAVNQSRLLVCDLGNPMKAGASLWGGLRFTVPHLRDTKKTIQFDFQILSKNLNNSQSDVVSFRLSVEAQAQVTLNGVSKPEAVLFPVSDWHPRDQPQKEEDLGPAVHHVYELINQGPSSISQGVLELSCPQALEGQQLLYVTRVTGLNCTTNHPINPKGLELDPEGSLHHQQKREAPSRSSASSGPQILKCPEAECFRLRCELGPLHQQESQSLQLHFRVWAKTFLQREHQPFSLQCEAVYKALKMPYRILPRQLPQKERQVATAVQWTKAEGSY
T4 sequence (P05556 21-728 limits assumed, chain 2 of 2): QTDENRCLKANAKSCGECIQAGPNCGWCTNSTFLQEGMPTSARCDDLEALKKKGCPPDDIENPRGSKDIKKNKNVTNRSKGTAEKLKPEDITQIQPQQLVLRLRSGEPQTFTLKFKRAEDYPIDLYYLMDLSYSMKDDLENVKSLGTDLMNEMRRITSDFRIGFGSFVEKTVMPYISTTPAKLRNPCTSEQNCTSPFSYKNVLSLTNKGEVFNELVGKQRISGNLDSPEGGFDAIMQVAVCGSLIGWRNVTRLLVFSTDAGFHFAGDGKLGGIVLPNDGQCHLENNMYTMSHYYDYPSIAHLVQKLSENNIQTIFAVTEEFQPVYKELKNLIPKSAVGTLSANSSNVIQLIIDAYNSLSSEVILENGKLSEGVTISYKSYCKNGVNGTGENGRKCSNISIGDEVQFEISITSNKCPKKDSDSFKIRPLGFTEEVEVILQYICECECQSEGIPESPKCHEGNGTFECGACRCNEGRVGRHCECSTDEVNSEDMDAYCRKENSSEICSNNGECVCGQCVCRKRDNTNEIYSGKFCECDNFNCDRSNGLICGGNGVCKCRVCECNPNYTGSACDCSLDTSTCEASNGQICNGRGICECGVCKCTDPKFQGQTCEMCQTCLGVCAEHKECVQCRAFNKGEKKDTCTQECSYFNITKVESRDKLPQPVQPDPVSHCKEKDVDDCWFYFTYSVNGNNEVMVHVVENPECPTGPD

For B1, in assay [1], the binding result is on record as “binds”.

As a reminder, the Kd is the constant that tells how readily two partners part at equilibrium. A word on the koff: it is the rate constant with which the complex falls apart. As a reminder, the kon is the rate constant with which the complex forms. For orientation: IC50 means the concentration that gives 50% inhibition. As to B2, in assay [2], binding was put at a Kd of 0.28 nM. Besides, in assay [3], the Kd came out at 0.588 nM, the off-rate (koff) was 0.00049 s⁻¹ and the association rate constant (kon) was 833000 M⁻¹ s⁻¹. Also, in assay [4], the IC50 came out at 0.421 nM.

In assay [5], B3 registered a Kd of 0.09 nM, an off-rate (koff) of 8.2e-05 s⁻¹ and a kon of 850000 M⁻¹ s⁻¹. Further, the affinity in assay [6], expressed as Kd, was 31 nM.
